Drawing on article PMC6398935 (The Biochemical journal, 2016), this text covers binding result and Kd for seven molecules.

Sequences and labels used below:
B1: murine anti-fHbp monoclonal antibody 12C1 (IgG2b) (antibody, V domains shown)
VH: QVQLQESGPELVKPGASVKISCKASGYSFSDYNMSWVKQSNGKSLEWIGIIDPKYGTINYNQKFKGKATLTVDQASSTAYMQLNSLTSEDSAVYYCVRDYYGSSYFDYWGQGTTLTVSS
VL: DIVLTQSPSSIYASLGERVTLTCKASQDIHNYLNWFQQKPGKSPKTLIYRANRLVDGVPSRFSGGGSGQDYSLTISSLEFEDIGIYYCLQYDEFPPTFGGGTRLEIK
notes: also called mAb 12C1

In the first assay the target is T1, factor H binding protein (fHbp) variant 1.1, wild type (Neisseria meningitidis serogroup B …, UniProt Q9JXV4).
T1 construct: source: E. coli BL21(DE3), purified
In words: SPR; fHbp covalently immobilised by amine coupling on a CM5 chip (~500 RU); mAbs at 100 nM in HBS-EP injected one after the other (first mAb to saturation, then the second), both orders; 25 °C. To be noted: both partners purified. A general note: Surface plasmon resonance follows binding to a sensor surface in real time, without labels.
As for B1, the binding result is on record as “binds”.

The target of another assay is murine anti-fHbp monoclonal antibody JAR5 (IgG2b) (mouse). In words: SPR.
Sequence of murine anti-fHbp monoclonal antibody JAR5 (IgG2b) (mouse) (heavy, as listed by the source, chain 1 of 2, other chains not shown): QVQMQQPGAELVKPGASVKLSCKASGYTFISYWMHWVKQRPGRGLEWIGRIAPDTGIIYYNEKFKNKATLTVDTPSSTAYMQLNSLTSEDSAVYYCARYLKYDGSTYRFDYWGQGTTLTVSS
Conditions: not given
By Kd is commonly meant the free concentration of one partner at which half of the binding sites on the other are occupied at equilibrium, for simple one-to-one binding. Lower therefore signals a tighter complex. Regarding “fHbp variant 1.1 Gln87Ala mutant (natural protein)”, the dissociation constant Kd turned out to be 0.0017 µM. Regarding “fHbp variant 1.1 Gly121Ala mutant (natural protein)”, the Kd turned out to be 0.02 µM.

Consider “fHbp variant 1.1 Lys122Ser mutant (natural protein)”, for which the equilibrium dissociation constant (Kd) was found to be 0.013 µM. Molecule “fHbp variant 1.1 Gln115Ala mutant (natural protein)” displayed an equilibrium dissociation constant (Kd) of 0.023 µM. On the same count and under the same terms, then “fHbp variant 1.1 Lys122Ala mutant (natural protein)”, with 0.017 µM; and “fHbp variant 1.1 Asp85Ala mutant (natural protein)”, with 0.02 µM.
